Test results published in article PMC8651051.

How the values were obtained:
Conditions in all cases: N = 1 experiment
CV993_521_GS = target: CV993_521_GS
CV503_993_EL = target: CV503_993_EL
CV664_993_GS = target: CV664_993_GS
CV503_664_GS = target: CV503_664_GS

Question: What does the source list for “full-length SARS-CoV-2 spike D614G, expressed on the cell surface (from UniProt P0DTC2) Alpha (B.1.1.7)”?
Answer: percent of parent (CV993_521_GS): 222 % of D614G; percent of parent (CV503_993_EL): 214 % of D614G; percent of parent (CV664_993_GS): 257 % of D614G; percent of parent (CV503_664_GS): 236 % of D614G

Question: With “full-length SARS-CoV-2 spike D614G, expressed on the cell surface (from UniProt P0DTC2) Beta (B.1.351)” as the substance, how does the percent of parent (CV503_993_EL) read?
Answer: 170 % of D614G

Question: And the percent of parent (CV503_664_GS)?
Answer: 202 % of D614G
